The series deals with the molecule itself. In words: crystal structure; C.Esp1396I (0.7 mg/ml) mixed with 35 bp dsDNA at 4:1 molar ratio; sitting-drop vapour diffusion at 293 K, 50 mM MES pH 7.5, 25% MPD, 40 mM MgCl2; data at 100 K, space group P6(5), 2.8 A; eight datasets of increasing dose from one crystal.

B1: C.Esp1396I (natural protein)
chain: MESFLLSKVSFVIKKIRLEKGMTQEDLAYKSNLDRTYISGIERNSRNLTIKSLELIMKGLEVSDVVFFEMLIKEILKHD
notes: C.Esp1396I, bacterial helix-turn-helix controller protein of a restriction-modification system; native protein; protein chains A-D of the deposited entries; also called C-protein; controller C-protein; source: expression and purification as described earlier (McGeehan et al., 2008); pure protein
As for B1, the stoichiometry N (as a rule, a count of units in the complex or per binding partner) was 4.

These data come from PMC4344358, “Radiation damage to nucleoprotein complexes in macromolecular crystallography” (Journal of Synchrotron Radiation, 2015).
